Measured values published in the supplement of paper PMC12042874.
± gives the uncertainty stated by the source.

Experiment: amyloid nucleation score (Sup35N fusion, yeast selection) (log enrichment); library NNK3; higher = more nucleation; inactive = no reads after selection
Outline: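 Using DiMSum, nucleation scores were taken as the log enrichment of output over input reads, centred on the mode score of non-aggregating sequences. The input and output reads came from Illumina sequencing of plasmid inserts, with sequences under 100 input reads excluded. The yeast were psi-negative, expressed Sup35N fused to peptides of 20 random codons, were induced with 100 μM copper sulfate for 24 hours, and were grown 7 days at 30°C on medium lacking adenine and uracil.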
With SVILNLMRRWPRKHEVKDAC the amyloid nucleation score was “inactive”.
With SVIMFINRIPGSNPL the amyloid nucleation score was “inactive”.
In the case of SVKLLSVTSCDGGRAWWQGG, the amyloid nucleation score is reported as “inactive”.
With SVNCHHLPNLHCWKYTKVEY the amyloid nucleation score was “inactive”.
For SVNHKFVSDCIFGRATMEVR, the amyloid nucleation score was -0.263 ± 0.9.
For SVNPAKHVMCKRAPGCGKLH, the amyloid nucleation score was “inactive”.
With SVNTLLALRV the amyloid nucleation score was “inactive”.
SVPMVLFRASLVMYGLMLSQ gave an amyloid nucleation score of 0.835 ± 0.12.
In the case of SVRGITQLSSTLHVRLVITS, the amyloid nucleation score is reported as “inactive”.
In the case of SVRRQHPFN, the amyloid nucleation score is reported as “inactive”.
Substance SVSASRSEVTRE has an amyloid nucleation score of -0.146 ± 0.64.
For SVSTGVKIACTPTIVDRQLG, the amyloid nucleation score was “inactive”.
In the case of SVTFSHVRTSRIRCGIMVYP, the amyloid nucleation score is reported as “inactive”.
For SVTFTSSVLYEGSKVSAFLL, the amyloid nucleation score was “inactive”.
For SVTLLFLKLYIR, the amyloid nucleation score was “inactive”.
SVYCSCISFGPTSKILVIMD showed an amyloid nucleation score of 2.34 ± 0.088.
In the case of SVYCYEAS, the amyloid nucleation score is reported as “inactive”.
For SVYLT, the amyloid nucleation score was “inactive”.
For SVYLTHSLFLRQLVGYLVHL, the amyloid nucleation score was “inactive”.
For SVYRSRSHRVFWEFLSGAT, the amyloid nucleation score was “inactive”.
In the case of SVYSITSCMHGVAQSEVMFD, the amyloid nucleation score is reported as 1.1 ± 0.16.
With SWCLERHGTRWSEFNYGPSS the amyloid nucleation score was “inactive”.
With SWITHSIGSDTATGYETFFN the amyloid nucleation score was “inactive”.
For SWLCPFNGA, the amyloid nucleation score was “inactive”.
With SWLFHRYFVGSYCVLMDMRV the amyloid nucleation score was “inactive”.
For SWQMWYWLLVKSMPCMLHHF, the amyloid nucleation score was “inactive”.
In the case of SWRASVYFITWDW, the amyloid nucleation score is reported as “inactive”.
In the case of SWSANSCFVRIEKISLHNVG, the amyloid nucleation score is reported as “inactive”.
For SWTFQHIWVRHSRSPCKAGR, the amyloid nucleation score was “inactive”.
For SWTFRTLSKCVYYSFCREMD, the amyloid nucleation score was “inactive”.
In the case of SWVYGSSDPSRVSSCLVGVL, the amyloid nucleation score is reported as “inactive”.
SWYESKFVAVRWWIGDPLRG gave an amyloid nucleation score of 0.703 ± 0.26.
Work on SYAQGH yielded an amyloid nucleation score of 0.901 ± 0.18.
For SYEHFRWLYHVFKVARFFFL, the amyloid nucleation score was “inactive”.
For SYFTVHHSCLGHTTQHVMLS, the amyloid nucleation score was “inactive”.
For SYGNCSSMHGPVKMLRICHQ, the amyloid nucleation score was “inactive”.
In the case of SYLNRPWD, the amyloid nucleation score is reported as “inactive”.
With SYNGYRSGLFGYGSTVSFIS the amyloid nucleation score was “inactive”.
In the case of SYRKEFSVPMATGDDSTPQH, the amyloid nucleation score is reported as “inactive”.
In the case of SYRRIGHMRTKLGQVVR, the amyloid nucleation score is reported as “inactive”.
For SYSDRGCVGMNVLSVFEGWD, the amyloid nucleation score was “inactive”.
SYSKVCRSKRQI gave an amyloid nucleation score of 0.185 ± 0.71.
For SYSTARDSVGLSSWSSLIKW, the amyloid nucleation score was “inactive”.
For SYTSMFPRCQKIHLRQVRIS, the amyloid nucleation score was “inactive”.
In the case of SYYITLHWIVASGSYSADNT, the amyloid nucleation score is reported as 0.454 ± 0.14.
In the case of TACLSVQMWFRFSVFSGVYL, the amyloid nucleation score is reported as “inactive”.
With TAIRIMMRV the amyloid nucleation score was “inactive”.
In the case of TAIVIMTYYTIRGFRTIGMW, the amyloid nucleation score is reported as -0.174 ± 0.22.
For TAKMSRVYCCCFSLFDVSLK, the amyloid nucleation score was “inactive”.
For TAKSSGINDRLTQRI, the amyloid nucleation score was “inactive”.
In the case of TALAEQ, the amyloid nucleation score is reported as -0.402 ± 1.3.
With TAMCQSLGPTATTLTGVSWG the amyloid nucleation score was “inactive”.
With TARPSNKMNHRECCTNKFFP the amyloid nucleation score was “inactive”.
For TASPCFNSYLKNFVLGLPTT, the amyloid nucleation score was “inactive”.
Substance TASVLNYFSGFWRGV has an amyloid nucleation score of 1.04 ± 0.17.
With TASVRVRFPLSFTPCLEVHP the amyloid nucleation score was “inactive”.
In the case of TCISFYETVAL, the amyloid nucleation score is reported as “inactive”.
Work on TCLLFVTHFNWYNTLVEGTI yielded an amyloid nucleation score of 0.989 ± 0.15.
For TCLWGYALFICMNSRWGMRW, the amyloid nucleation score was “inactive”.
For TCSHVYQTYAVKAASKNIMI, the amyloid nucleation score was “inactive”.
With TCSRIQLISNWFRVQLKSNV the amyloid nucleation score was “inactive”.
With TCSYANHMSKVFEVVMV the amyloid nucleation score was “inactive”.
TCTAFQMHI showed an amyloid nucleation score of 0.007 ± 0.68.
In the case of TDKAICISLFRVIRLYAYAK, the amyloid nucleation score is reported as “inactive”.
With TDMHGFNNIS the amyloid nucleation score was “inactive”.
For TDRTQ, the amyloid nucleation score was “inactive”.
In the case of TDTSAGFM, the amyloid nucleation score is reported as “inactive”.
For TDVDNGLYRIDNLMARAKVY, the amyloid nucleation score was “inactive”.
In the case of TECMGGGSVWTQW, the amyloid nucleation score is reported as “inactive”.
In the case of TEDGYNNEMSRQKVMVLINT, the amyloid nucleation score is reported as “inactive”.
With TEFKAFHNCQINRSDTTLWL the amyloid nucleation score was 0.096 ± 0.68.
For TENKSMSFFNYDRAYARIL, the amyloid nucleation score was “inactive”.
For TENQS, the amyloid nucleation score was “inactive”.
With TEQRMQ the amyloid nucleation score was “inactive”.
In the case of TESQRSNWCTASIKSMYSYS, the amyloid nucleation score is reported as “inactive”.
In the case of TETSWDGVVLSLISCRFQSY, the amyloid nucleation score is reported as 3.02 ± 0.079.
In the case of TEVPFRVSF, the amyloid nucleation score is reported as “inactive”.
Work on TEVSQWGVREVFSLSTSRRL yielded an amyloid nucleation score of 0.372 ± 0.28.
For TFEWCMPFFTNFSLMFFFYW, the amyloid nucleation score was “inactive”.
In the case of TFFEVGRQYELAVGKSRSSM, the amyloid nucleation score is reported as “inactive”.
For TFGFRNRYFELLSVVIRHLA, the amyloid nucleation score was “inactive”.
For TFLMAYSWSCRQRNCKGFIY, the amyloid nucleation score was “inactive”.
With TFPLAECRWIVWRLDDSLM the amyloid nucleation score was “inactive”.
For TFPRERWDCPCKVIFRSVTP, the amyloid nucleation score was “inactive”.
In the case of TFRIVRFCLKILTCRTC, the amyloid nucleation score is reported as “inactive”.
TFSASAVFTYDKGAPPLLEG showed an amyloid nucleation score of 0.999 ± 0.17.
Substance TFTLSCFTCNGFVSDVVHCD has an amyloid nucleation score of 3.21 ± 0.054.
For TFTTFRWDEGVLLYLYERVG, the amyloid nucleation score was “inactive”.
With TFVVGRVITWKNQVCL the amyloid nucleation score was “inactive”.
With TFWFD the amyloid nucleation score was “inactive”.
In the case of TFWKKGMPGIIYRYFYLF, the amyloid nucleation score is reported as “inactive”.
For TFYDDYQDLQKLFARFWLPV, the amyloid nucleation score was “inactive”.
In the case of TGDSLLLAHLLWSMDIVNMN, the amyloid nucleation score is reported as “inactive”.
For TGFYDCNLGLDLCIAIWVCS, the amyloid nucleation score was -0.156 ± 0.34.
For TGHWNSDWFLI, the amyloid nucleation score was “inactive”.
For TGLNIILLLCFMMSLGES, the amyloid nucleation score was “inactive”.
For TGMFL, the amyloid nucleation score was -0.004 ± 0.2.
With TGSMFRSRPRSEG the amyloid nucleation score was “inactive”.
In the case of TGSTDRHYGRYIGWGANSRF, the amyloid nucleation score is reported as “inactive”.
In the case of TGSVVRDMVMAFTD, the amyloid nucleation score is reported as -0.458 ± 0.93.
For TGVVTMF, the amyloid nucleation score was “inactive”.
With TGYCYMILLRNGVQVSVEGT the amyloid nucleation score was 0.092 ± 0.81.
For TGYSYFYGWMVTYATQSKRV, the amyloid nucleation score was “inactive”.
With TGYWI the amyloid nucleation score was “inactive”.
In the case of THEVISSFGMVFRNSNFCNS, the amyloid nucleation score is reported as “inactive”.
With THLVDYKLVL the amyloid nucleation score was “inactive”.
For THRDYLMVRYCGSCHVEMVS, the amyloid nucleation score was “inactive”.
With TIAVLMLIDCGSRGPFRHLT the amyloid nucleation score was “inactive”.
For TIKYVDRPARTGGEALAIVV, the amyloid nucleation score was -0.323 ± 1.
In the case of TINRHYVTASRYWLPCRRVR, the amyloid nucleation score is reported as “inactive”.
In the case of TIRFGSSLPCNPDSSYLLRI, the amyloid nucleation score is reported as “inactive”.
For TISYMWRLNGWRSNRAFGSI, the amyloid nucleation score was “inactive”.
TIYFF gave an amyloid nucleation score of 1.27 ± 0.11.
For TKECGKKFNYWVRIDLSRLW, the amyloid nucleation score was “inactive”.
For TKLMGLSVLLIEVIVGVSCW, the amyloid nucleation score was “inactive”.
For TKSAYRWSRKVRNEFQGSMG, the amyloid nucleation score was “inactive”.
For TKTFSDVMLYQCAARCKDLH, the amyloid nucleation score was “inactive”.
